What follows are binders tested against T1, human FcγRIIIa type V (allotype V158) extracellular domain with C-terminal His tag (human, UniProt P08637 17-208) (assay: SPR (Biacore), antibody captured, FcγR analyte).
T1 construct: also called FcγRIIIaV
T1 sequence (P08637 other isoform, or with tags, fused parts or gaps): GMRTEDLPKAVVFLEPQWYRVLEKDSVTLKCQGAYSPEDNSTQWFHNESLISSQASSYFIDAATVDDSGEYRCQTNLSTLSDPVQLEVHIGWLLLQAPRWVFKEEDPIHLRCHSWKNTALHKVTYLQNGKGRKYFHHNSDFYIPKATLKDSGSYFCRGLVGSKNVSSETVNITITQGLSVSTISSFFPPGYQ

| Binder | Kd [µM] |
| --- | --- |
| IL6R-BP117/IL6R-L (antibody, human IgG1, kappa, name in EU numbering, Alterations introduced into IL6R-B3; also called P238D/K326D; copies: 2 + 2) heavy: QVQLQESGPGLVKPSETLSLTCAVSGHSISHDHAWSWVRQPPGEGLEWIGFISYSGITNYNPSLQGRVTISRDNSKNTLYLQMNSLRAEDTAVYYCARSLARTTAMDYWGEGTLVTVSSASTKGPSVFPLAPSSKSTSGGTAALGCLVKDYFPEPVTVSWNSGALTSGVHTFPAVLQSSGLYSLSSVVTVPSSSLGTQTYICNVNHKPSNTKVDKKVEPKSCDKTHTCPPCPAPELLGGDSVFLFPPKPKDTLMISRTPEVTCVVVDVSHEDPEVKFNWYVDGVEVHNAKTKPREEQYNSTYRVVSVLTVLHQDWLNGKEYKCKVSNDALPAPIEKTISKAKGQPREPQVYTLPPSRDELTKNQVSLTCLVKGFYPSDIAVEWESNGQPENNYKTTPPVLDSDGSFFLYSKLTVDKSRWQQGNVFSCSVMHEALHNHYTQESLSLSP light: not shown | 67 |
| IL6R-BP120/IL6R-L (antibody, human IgG1, kappa, name in EU numbering, Alterations introduced into IL6R-B3; also called P238D/K326E; copies: 2 + 2) heavy: QVQLQESGPGLVKPSETLSLTCAVSGHSISHDHAWSWVRQPPGEGLEWIGFISYSGITNYNPSLQGRVTISRDNSKNTLYLQMNSLRAEDTAVYYCARSLARTTAMDYWGEGTLVTVSSASTKGPSVFPLAPSSKSTSGGTAALGCLVKDYFPEPVTVSWNSGALTSGVHTFPAVLQSSGLYSLSSVVTVPSSSLGTQTYICNVNHKPSNTKVDKKVEPKSCDKTHTCPPCPAPELLGGDSVFLFPPKPKDTLMISRTPEVTCVVVDVSHEDPEVKFNWYVDGVEVHNAKTKPREEQYNSTYRVVSVLTVLHQDWLNGKEYKCKVSNEALPAPIEKTISKAKGQPREPQVYTLPPSRDELTKNQVSLTCLVKGFYPSDIAVEWESNGQPENNYKTTPPVLDSDGSFFLYSKLTVDKSRWQQGNVFSCSVMHEALHNHYTQESLSLSP light: not shown | 79 |
| IL6R-BP142/IL6R-L (antibody, human IgG1, kappa, name in EU numbering, Alterations introduced into IL6R-B3; also called P238D/K326N; copies: 2 + 2) heavy: QVQLQESGPGLVKPSETLSLTCAVSGHSISHDHAWSWVRQPPGEGLEWIGFISYSGITNYNPSLQGRVTISRDNSKNTLYLQMNSLRAEDTAVYYCARSLARTTAMDYWGEGTLVTVSSASTKGPSVFPLAPSSKSTSGGTAALGCLVKDYFPEPVTVSWNSGALTSGVHTFPAVLQSSGLYSLSSVVTVPSSSLGTQTYICNVNHKPSNTKVDKKVEPKSCDKTHTCPPCPAPELLGGDSVFLFPPKPKDTLMISRTPEVTCVVVDVSHEDPEVKFNWYVDGVEVHNAKTKPREEQYNSTYRVVSVLTVLHQDWLNGKEYKCKVSNNALPAPIEKTISKAKGQPREPQVYTLPPSRDELTKNQVSLTCLVKGFYPSDIAVEWESNGQPENNYKTTPPVLDSDGSFFLYSKLTVDKSRWQQGNVFSCSVMHEALHNHYTQESLSLSP light: not shown | 110 |
| IL6R-BP136/IL6R-L (antibody, human IgG1, kappa, name in EU numbering, Alterations introduced into IL6R-B3; also called P238D/K326A; copies: 2 + 2) heavy: QVQLQESGPGLVKPSETLSLTCAVSGHSISHDHAWSWVRQPPGEGLEWIGFISYSGITNYNPSLQGRVTISRDNSKNTLYLQMNSLRAEDTAVYYCARSLARTTAMDYWGEGTLVTVSSASTKGPSVFPLAPSSKSTSGGTAALGCLVKDYFPEPVTVSWNSGALTSGVHTFPAVLQSSGLYSLSSVVTVPSSSLGTQTYICNVNHKPSNTKVDKKVEPKSCDKTHTCPPCPAPELLGGDSVFLFPPKPKDTLMISRTPEVTCVVVDVSHEDPEVKFNWYVDGVEVHNAKTKPREEQYNSTYRVVSVLTVLHQDWLNGKEYKCKVSNAALPAPIEKTISKAKGQPREPQVYTLPPSRDELTKNQVSLTCLVKGFYPSDIAVEWESNGQPENNYKTTPPVLDSDGSFFLYSKLTVDKSRWQQGNVFSCSVMHEALHNHYTQESLSLSP light: not shown | 69 |

The next binders have a lower Kd than those just listed; values first:

| Kd [µM] | Binder |
| --- | --- |
| 56 | IL6R-BP118/IL6R-L (antibody, human IgG1, kappa, name in EU numbering, Alterations introduced into IL6R-B3; also called P238D/K326S; copies: 2 + 2) heavy: QVQLQESGPGLVKPSETLSLTCAVSGHSISHDHAWSWVRQPPGEGLEWIGFISYSGITNYNPSLQGRVTISRDNSKNTLYLQMNSLRAEDTAVYYCARSLARTTAMDYWGEGTLVTVSSASTKGPSVFPLAPSSKSTSGGTAALGCLVKDYFPEPVTVSWNSGALTSGVHTFPAVLQSSGLYSLSSVVTVPSSSLGTQTYICNVNHKPSNTKVDKKVEPKSCDKTHTCPPCPAPELLGGDSVFLFPPKPKDTLMISRTPEVTCVVVDVSHEDPEVKFNWYVDGVEVHNAKTKPREEQYNSTYRVVSVLTVLHQDWLNGKEYKCKVSNSALPAPIEKTISKAKGQPREPQVYTLPPSRDELTKNQVSLTCLVKGFYPSDIAVEWESNGQPENNYKTTPPVLDSDGSFFLYSKLTVDKSRWQQGNVFSCSVMHEALHNHYTQESLSLSP light: not shown |
| 58 | IL6R-BP911/IL6R-L (antibody, human IgG1, kappa, name in EU numbering, Alterations introduced into IL6R-B3; also called P238D/A330K; copies: 2 + 2) heavy: QVQLQESGPGLVKPSETLSLTCAVSGHSISHDHAWSWVRQPPGEGLEWIGFISYSGITNYNPSLQGRVTISRDNSKNTLYLQMNSLRAEDTAVYYCARSLARTTAMDYWGEGTLVTVSSASTKGPSVFPLAPSSKSTSGGTAALGCLVKDYFPEPVTVSWNSGALTSGVHTFPAVLQSSGLYSLSSVVTVPSSSLGTQTYICNVNHKPSNTKVDKKVEPKSCDKTHTCPPCPAPELLGGDSVFLFPPKPKDTLMISRTPEVTCVVVDVSHEDPEVKFNWYVDGVEVHNAKTKPREEQYNSTYRVVSVLTVLHQDWLNGKEYKCKVSNKALPKPIEKTISKAKGQPREPQVYTLPPSRDELTKNQVSLTCLVKGFYPSDIAVEWESNGQPENNYKTTPPVLDSDGSFFLYSKLTVDKSRWQQGNVFSCSVMHEALHNHYTQESLSLSP light: not shown |
| 52 | IL6R-BP121/IL6R-L (antibody, human IgG1, kappa, name in EU numbering, Alterations introduced into IL6R-B3; also called P238D/K326Q; copies: 2 + 2) heavy: QVQLQESGPGLVKPSETLSLTCAVSGHSISHDHAWSWVRQPPGEGLEWIGFISYSGITNYNPSLQGRVTISRDNSKNTLYLQMNSLRAEDTAVYYCARSLARTTAMDYWGEGTLVTVSSASTKGPSVFPLAPSSKSTSGGTAALGCLVKDYFPEPVTVSWNSGALTSGVHTFPAVLQSSGLYSLSSVVTVPSSSLGTQTYICNVNHKPSNTKVDKKVEPKSCDKTHTCPPCPAPELLGGDSVFLFPPKPKDTLMISRTPEVTCVVVDVSHEDPEVKFNWYVDGVEVHNAKTKPREEQYNSTYRVVSVLTVLHQDWLNGKEYKCKVSNQALPAPIEKTISKAKGQPREPQVYTLPPSRDELTKNQVSLTCLVKGFYPSDIAVEWESNGQPENNYKTTPPVLDSDGSFFLYSKLTVDKSRWQQGNVFSCSVMHEALHNHYTQESLSLSP light: not shown |
| 56 | IL6R-BP119/IL6R-L (antibody, human IgG1, kappa, name in EU numbering, Alterations introduced into IL6R-B3; also called P238D/K326M; copies: 2 + 2) heavy: QVQLQESGPGLVKPSETLSLTCAVSGHSISHDHAWSWVRQPPGEGLEWIGFISYSGITNYNPSLQGRVTISRDNSKNTLYLQMNSLRAEDTAVYYCARSLARTTAMDYWGEGTLVTVSSASTKGPSVFPLAPSSKSTSGGTAALGCLVKDYFPEPVTVSWNSGALTSGVHTFPAVLQSSGLYSLSSVVTVPSSSLGTQTYICNVNHKPSNTKVDKKVEPKSCDKTHTCPPCPAPELLGGDSVFLFPPKPKDTLMISRTPEVTCVVVDVSHEDPEVKFNWYVDGVEVHNAKTKPREEQYNSTYRVVSVLTVLHQDWLNGKEYKCKVSNMALPAPIEKTISKAKGQPREPQVYTLPPSRDELTKNQVSLTCLVKGFYPSDIAVEWESNGQPENNYKTTPPVLDSDGSFFLYSKLTVDKSRWQQGNVFSCSVMHEALHNHYTQESLSLSP light: not shown |
| 56 | IL6R-BP126/IL6R-L (antibody, human IgG1, kappa, name in EU numbering, Alterations introduced into IL6R-B3; also called P238D/K326L; copies: 2 + 2) heavy: QVQLQESGPGLVKPSETLSLTCAVSGHSISHDHAWSWVRQPPGEGLEWIGFISYSGITNYNPSLQGRVTISRDNSKNTLYLQMNSLRAEDTAVYYCARSLARTTAMDYWGEGTLVTVSSASTKGPSVFPLAPSSKSTSGGTAALGCLVKDYFPEPVTVSWNSGALTSGVHTFPAVLQSSGLYSLSSVVTVPSSSLGTQTYICNVNHKPSNTKVDKKVEPKSCDKTHTCPPCPAPELLGGDSVFLFPPKPKDTLMISRTPEVTCVVVDVSHEDPEVKFNWYVDGVEVHNAKTKPREEQYNSTYRVVSVLTVLHQDWLNGKEYKCKVSNLALPAPIEKTISKAKGQPREPQVYTLPPSRDELTKNQVSLTCLVKGFYPSDIAVEWESNGQPENNYKTTPPVLDSDGSFFLYSKLTVDKSRWQQGNVFSCSVMHEALHNHYTQESLSLSP light: not shown |

From patent US20240279325A1 (Chugai, published 2024)
